Target: T22-GFP-H6 protein nanoparticle (unlabeled) (horseshoe crab | not stated)
Experiment: SEC-MALS; Superdex 200 increase 10/300 GL; 166 mM NaHCO3, 333 mM NaCl, 0.1 mM NiCl2, pH 8; average molar mass of the self-assembled nanoparticles, in duplicate

stoichiometry N: 10 copies
Substance: T22-GFP-H6 protein nanoparticle (unlabeled)

Reference: PMC7690626
